Substrate in the data set: O=c1ccn([C@@H]2O[C@H](COP(=O)(O)OP(=O)(O)O[C@H]3O[C@H](CO)[C@H](O)[C@H](O)[C@H]3O)[C@@H](O)[C@H]2O)c(=O)[nH]1
The data set can be described thus: UDP-Glo glycosyltransferase assay. In kind it is biochemical, Homo sapiens. To be noted: no acceptor, 50 mM Tris pH 7.5, 5 mM MnCl2, 37 °C, 60 min.

Residue numbers refer to the chain shown, from its start. Names may count otherwise.

B1: GLT8D1 (Homo sapiens) (protein)
chain: MSFRKVNIIILVLAVALFLLVLHHNFLSLSSLLRNEVTDSGIVGPQPIDFVPNALRHAVDGRQEEIPVVIAASEDRLGGAIAAINSIQHNTRSNVIFYIVTLNNTADHLRSWLNSDSLKSIRYKIVNFDPKLLEGKVKEDPDQGESMKPLTFARFYLPILVPSAKKAIYMDDDVIVQGDILALYNTALKPGHAAAFSEDCDSASTKVVIRGAGNQYNYIGYLDYKKERIRKLSMKASTCSFNPGVFVANLTEWKRQNITNQLEKWMKLNVEEGLYSRTLAGSITTPPLLIVFYQQHSTIDPMWNVRHLGSSAGKRYSPQFVKAAKLLHWNGHLKPWGRTASYTDVWEKWYIPDPTGKFNLIRRYTEISNIK
Turning to B1, the Km (usually the substrate concentration at which the rate is half of its maximum) was determined as 3500 µM.

B2: GLT8D1 (Homo sapiens; G78W) (protein)
chain: B1 chain with G78W
On to B2, for which the Km amounted to 2300 µM.

B3: GLT8D1 (Homo sapiens; R92C) (protein)
chain: B1 chain with R92C
On to B3, for which the Km is 2500 µM.

For the origin of these results see publication PMC7003067.
